This note sets out measurements from patent US8663616B2, “Enzymatic peracid generation for use in oral care products” (E I du Pont de Nemours and Company, priority 2010, dated 2014).

Type in all cases: biochemical
Assay [1] is described as follows: M. smegmatis aryl esterase constructs, peracetic acid when bound to hydroxyapatite particles (Example 10). As to conditions: 33 mg HAP particles exposed to 10 μM enzyme; 100 mM triacetin, 100 mM H2O2, 30 min, 37° C.; no enzyme 323. The procedure:
(§1) The detection of peracetic acid followed the method described in Pinkernell et. al. (Analyst, 1997, 122, 567) using colorimetric detection of 2,2′-azino-bis(3-ethylbenzothiazoline(-6-sulfonate (ABTS) oxidation by peracetic acid. Following the formation of peracetic acid with the addition of triacetin and hydrogen peroxide, 90 μL of solution was added to 10 μL of 0.1 M H3PO4 in a well plate. 50 μL of 1 M acetic acid, 50 μL of 0.5 g/L ABTS and 50 μL of 0.002 g/L of KI was added. The solution was allowed to develop for 5 min. The absorbance of the solution was measured at 405 nm using a microplate reader. The peracetic acid concentration was calculated based on a standard curve developed simultaneously using peracetic acid reagent solution.
For assessment of binding and activity on hydroxyapatite, the aryl esterase enzymes were exposed to hydroxyapatite particles as described in Example 8 using 33 mg of buffer washed HAP particles (Macro-prep Ceramic Hydroxyapatite TYPE I, 80 μm size BioRad, Hercules, Calif.) using a 10 μM solution in 10 mM phosphate buffer. Following centrifugation and removal of the enzyme solution, the particles were rinsed with phosphate butter by centrifuging and removing the supernatant. A 200 μL solution containing 100 mM triacetin, 100 mM H2O2 and 100 mM phosphate buffer, pH 7.2 was added to the particles and incubated at 37° C. for 30 min. As described in Example 7, the reaction was stopped by removing a portion to H3PO4 and a 10 μL aliquot was removed diluted for detection via ABTS oxidation.

Assay [2] in a line: M. smegmatis aryl esterase constructs, peracetic acid in solution (Example 10). Particulars: 0.5 μM enzyme, 100 mM triacetin, 100 mM H2O2, pH 7.2, 30 min, 37° C.; no enzyme 158. The procedure:
as §1
For aryl esterase constructs, the enzyme activity in solution was measured by making a 1 mL solution of 0.5 μM of each enzyme, 100 mM triacetin, and 100 mM H2O2 in 100 mM phosphate buffer, pH 7.2. The solution was mixed and incubated for 30 min, at 37° C. As described in Example 7, the reaction was stopped by removing a portion to H3PO4 and a 10 μL aliquot was removed and diluted for detection via ABTS oxidation.

Assay [3] can be described thus: P. fluorescens perhydrolase constructs, peracetic acid in solution (Example 10). Particulars: 2 μM enzyme, 100 mM H2O2, 1 M sodium acetate pH 5.5, 30 min, 37° C.; no enzyme 9. The procedure:
as §1
(§2) For P. fluorescens constructs, the solution activity was measured by mixing a 1 mL solution containing 2 μM enzyme, 100 mM H2O2 in a 1 M sodium acetate buffer, pH 5.5. The solution was incubated at 37° C. for 30 min. As described in Example 7, the reaction was stopped by removing a portion to H3PO4 and a 10 μL aliquot was removed and diluted for detection via ABTS oxidation. For assessment of binding and activity on hydroxyapatite, the P. fluorescens enzymes were exposed to hydroxyapatite particles at 20 μM in 10 mM phosphate buffer as described in Example 8 using 100 mg of buffer washed HAP particles (Macro-prep Ceramic Hydroxyapatite TYPE I, 80 μm size BioRad, Hercules, Calif.). Following centrifugation and removal of the enzyme solution, the particles were rinsed with phosphate butter by centrifuging and removing the supernatant. A 200 μL solution containing 300 mM H2O2 in 1 M sodium acetate buffer, pH 5.5 was added to the particles and incubated at 37° C. for 10 min. As described in Example 7, the reaction was stopped by removing a portion to H3PO4 and a 10 μL aliquot was removed and diluted for detection via ABTS oxidation.

A short description of assay [4]: P. fluorescens perhydrolase constructs, peracetic acid when bound to hydroxyapatite particles (Example 10). Particulars: 100 mg HAP particles exposed to 20 μM enzyme; 300 mM H2O2, 1 M sodium acetate pH 5.5, 10 min, 37° C.; no enzyme 17. On the procedure:
as §1, §2

B1: EZ-40: ArE-link1-DenP308-H6, SEQ ID NO: 464 (protein)
chain: MAKRILCFGDSLTWGWVPVEDGAPTERFAPDVRWTGVLAQQLGADFEVIEEGLVARTTNIDDPTDPRLNGASYLPSCLATHLPLDLVIIMLGTNDTKAYFRRTPLDIALGMSVLVTQVLTSAGGVGTTYPAPKVLVVSPPPLAPMPHPWFQLIFEGGEQKTTELARVYSALASFMKVPFFDAGSVISTDGVDGIHFTEANNRDLGVALAEQVRSLLGPGSGGAGSPGSAGGPGSDPTKPPRTPTANTSRPHHNFGSGGGGSPHHHHHH
With B1, the “Peracetic acid (ppm) On Hydroxyapatite” value in assay [1] is 2476 ppm. Besides, in assay [2], the “Peracetic acid (ppm) In Solution” value is 3605 ppm.

B2: EZ-44: Pfl-link1-HC263-H6, SEQ ID NO: 479 (protein)
chain: MSTFVAKDGTQIYFKDWGSGKPVLFSHGWPLDADMWEYQMEYLSSRGYRTIAFDRRGFGRSDQPWTGNDYDTFADDIAQLIEHLDLKEVTLVGFSMGGGDVARYIARHGSARVAGLVLLGAVTPLFGQKPDYPQGVPLDVFARFKTELLKDRAQFISDFNAPFYGINKGQVVSQGVQTQTLQIALLASLKATVDCVTAFAETDFRPDMAKIDVPTLVIHGDGDQIVPFETTGKVAAELIKGAELKVYKDAPHGFAVTHAQQLNEDLLAFLKRGPGSGGAGSPGSAGGPGSPSAQSQLPDKHSGLHERAPQRYGPEPEPEPEPIPEPPKEAPVVIEKPKPKPKPKPKPPAHDHKNQKETHQRHAAGSGGGGSPHHHH
In the case of B2, in assay [3], the “Peracetic acid (ppm) In Solution” value was 58 ppm. Besides, in assay [4], the “Peracetic acid (ppm) On Hydroxyapatite” value worked out at 97 ppm.

B3: EZ-43: Pfl-link1-DenP308-H6, SEQ ID NO: 467 (protein)
chain: MSTFVAKDGTQIYFKDWGSGKPVLFSHGWPLDADMWEYQMEYLSSRGYRTIAFDRRGFGRSDQPWTGNDYDTFADDIAQLIEHLDLKEVTLVGFSMGGGDVARYIARHGSARVAGLVLLGAVTPLFGQKPDYPQGVPLDVFARFKTELLKDRAQFISDFNAPFYGINKGQVVSQGVQTQTLQIALLASLKATVDCVTAFAETDFRPDMAKIDVPTLVIHGDGDQIVPFETTGKVAAELIKGAELKVYKDAPHGFAVTHAQQLNEDLLAFLKRGPGSGGAGSPGSAGGPGSDPTKPPRTPTANTSRPHHNFGSGGGGSPHHHHHH
For B3, in assay [3], the “Peracetic acid (ppm) In Solution” value was determined as 79 ppm. The “Peracetic acid (ppm) On Hydroxyapatite” value in assay [4] came to 68 ppm.

B4: EZ-36: M. smegmatis aryl esterase ArE S54V, untargeted, SEQ ID NO: 460 (protein, listed as Mycobacterium smegmatis)
chain: MAKRILCFGDSLTWGWVPVEDGAPTERFAPDVRWTGVLAQQLGADFEVIEEGLVARTTNIDDPTDPRLNGASYLPSCLATHLPLDLVIIMLGTNDTKAYFRRTPLDIALGMSVLVTQVLTSAGGVGTTYPAPKVLVVSPPPLAPMPHPWFQLIFEGGEQKTTELARVYSALASFMKVPFFDAGSVISTDGVDGIHFTEANNRDLGVALAEQVRSLL
On to B4, for which the “Peracetic acid (ppm) On Hydroxyapatite” value in assay [1] worked out at 452 ppm. For the same molecule, in assay [2], the “Peracetic acid (ppm) In Solution” value was 2697 ppm.

B5: EZ-42: Pfl-link1-(GK)5-H6, SEQ ID NO: 466 (protein)
chain: MSTFVAKDGTQIYFKDWGSGKPVLFSHGWPLDADMWEYQMEYLSSRGYRTIAFDRRGFGRSDQPWTGNDYDTFADDIAQLIEHLDLKEVTLVGFSMGGGDVARYIARHGSARVAGLVLLGAVTPLFGQKPDYPQGVPLDVFARFKTELLKDRAQFISDFNAPFYGINKGQVVSQGVQTQTLQIALLASLKATVDCVTAFAETDFRPDMAKIDVPTLVIHGDGDQIVPFETTGKVAAELIKGAELKVYKDAPHGFAVTHAQQLNEDLLAFLKRGPGSGGAGSPGSAGGPGSGKGKGKGKGKHHHHHH
For B5, the “Peracetic acid (ppm) In Solution” value in assay [3] was 64 ppm. Besides, the “Peracetic acid (ppm) On Hydroxyapatite” value in assay [4] is 63 ppm.

B6: EZ-37: ArE-link1-H6, SEQ ID NO: 461 (protein)
chain: MAKRILCFGDSLTWGWVPVEDGAPTERFAPDVRWTGVLAQQLGADFEVIEEGLVARTTNIDDPTDPRLNGASYLPSCLATHLPLDLVIIMLGTNDTKAYFRRTPLDIALGMSVLVTQVLTSAGGVGTTYPAPKVLVVSPPPLAPMPHPWFQLIFEGGEQKTTELARVYSALASFMKVPFFDAGSVISTDGVDGIHFTEANNRDLGVALAEQVRSLLGPGSGGAGSPGSAGGPGSHHHHHH
On to B6, for which the “Peracetic acid (ppm) On Hydroxyapatite” value in assay [1] is recorded as 927 ppm.

B7: EZ-41: Pfl-link1-H6, SEQ ID NO: 465 (protein)
chain: MSTFVAKDGTQIYFKDWGSGKPVLFSHGWPLDADMWEYQMEYLSSRGYRTIAFDRRGFGRSDQPWTGNDYDTFADDIAQLIEHLDLKEVTLVGFSMGGGDVARYIARHGSARVAGLVLLGAVTPLFGQKPDYPQGVPLDVFARFKTELLKDRAQFISDFNAPFYGINKGQVVSQGVQTQTLQIALLASLKATVDCVTAFAETDFRPDMAKIDVPTLVIHGDGDQIVPFETTGKVAAELIKGAELKVYKDAPHGFAVTHAQQLNEDLLAFLKRGPGSGGAGSPGSAGGPGSHHHHHH
Turning to B7, the “Peracetic acid (ppm) On Hydroxyapatite” value in assay [4] came out at 18 ppm.

B8: EZ-39: ArE-link1-(GK)5-H6, SEQ ID NO: 463 (protein)
chain: MAKRILCFGDSLTWGWVPVEDGAPTERFAPDVRWTGVLAQQLGADFEVIEEGLVARTTNIDDPTDPRLNGASYLPSCLATHLPLDLVIIMLGTNDTKAYFRRTPLDIALGMSVLVTQVLTSAGGVGTTYPAPKVLVVSPPPLAPMPHPWFQLIFEGGEQKTTELARVYSALASFMKVPFFDAGSVISTDGVDGIHFTEANNRDLGVALAEQVRSLLGPGSGGAGSPGSAGGPGSGKGKGKGKGKHHHHHH
Consider B8, for which the “Peracetic acid (ppm) On Hydroxyapatite” value in assay [1] amounted to 3553 ppm. For the same molecule, the “Peracetic acid (ppm) In Solution” value in assay [2] is listed as 1366 ppm.
